In article PMC4161474:

Columns and labels:
Assay in all cases: co-IP; HEK293 cells co-transfected with Flag-HBx wt or alanine substitution mutants and His-myc-Spin1; precipitated with anti-Flag antibodies, anti-Myc and anti-Flag blots quantified with the Odyssey system; signal normalised to HBx in the IP/HBx in the input, Flag-HBx wt set to 100% (Figure 1C)
[1] = target: Flag-HBx Cm13, clustered alanine substitution mutant (Hepatitis B virus) (UniProt P69713)
[2] = target: Flag-HBx Cm5, clustered alanine substitution mutant (Hepatitis B virus) (UniProt P69713)
[3] = target: Flag-HBx Cm7, clustered alanine substitution mutant (Hepatitis B virus) (UniProt P69713)
[4] = target: Flag-HBx Cm8, clustered alanine substitution mutant (Hepatitis B virus) (UniProt P69713)
[5] = target: Flag-HBx Cm9, clustered alanine substitution mutant (Hepatitis B virus) (UniProt P69713)

**Q.** Which results are given for “His-Myc-Spindlin1 (from UniProt Q9Y657 1-262) (natural protein)”?
**A.** percent of Spindlin1 immunoprecipitated (Flag-HBx wt = 100%) [1]: 29%; percent of Spindlin1 immunoprecipitated (Flag-HBx wt = 100%) [2]: 10%; percent of Spindlin1 immunoprecipitated (Flag-HBx wt = 100%) [3]: 13%; percent of Spindlin1 immunoprecipitated (Flag-HBx wt = 100%) [4]: 52%; percent of Spindlin1 immunoprecipitated (Flag-HBx wt = 100%) [5]: 28%
